In patent publication US5972683:

Legend:
[1] = biological target: succinyl-Ala-Ala-Val-Ala-p-nitroanilide (Artificial Sequence)
[2] = biological target: succinyl-Ala-Ala-Pro-Ala-p-nitroanilide (Artificial Sequence)
[3] = biological target: succinyl-Ala-Ala-Pro-Leu-p-nitroanilide
[4] = biological target: succinyl-Ala-Ala-Pro-Phe-p-nitroanilide (Artificial Sequence)

Row | Substance | Specific activity (unit/mg protein), elastin-orcein (unit/mg protein) (elastin-orcein) | Specific activity (unit/mg protein), casein (unit/mg protein) (casein) | Specific activity (unit/mg protein), myofibril (unit/mg protein) (myofibrillar protein) | kcat /Km [1] [M⁻¹ s⁻¹] | kcat /Km [2] [M⁻¹ s⁻¹] | kcat /Km [3] [M⁻¹ s⁻¹] | kcat /Km [4] [M⁻¹ s⁻¹]
1 | subtilisin YaB mutant G124A (enzyme) | 647 | 3800 | 1020 |  |  |  | 
2 | subtilisin YaB mutant G124A (enzyme; unit assumed) |  |  |  | 122000 | 17000 |  | 
3 | subtilisin YaB mutant G124I (enzyme) | 64 | 602 | 717 |  |  |  | 
4 | subtilisin YaB mutant G124L (enzyme) | 157 | 1250 | 366 |  |  |  | 
5 | subtilisin YaB mutant G124V (enzyme) | 425 | 1400 | 605 |  |  |  | 
6 | subtilisin YaB mutant G151A (enzyme; unit assumed) |  |  |  | 56100 | 2690 | 5590 | 
7 | subtilisin YaB mutant G151I (enzyme) | 138 | 511 |  |  |  |  | 
8 | subtilisin YaB mutant G159F (enzyme) | 12 | 135 |  |  |  |  | 
9 | subtilisin YaB mutant G159I (enzyme) | 142 | 872 |  |  |  |  | 
10 | subtilisin YaB mutant G159L (enzyme) | 9 | 112 |  |  |  |  | 
11 | subtilisin YaB mutant G159S (enzyme) | 1510 | 8940 | 2330 |  |  |  | 
12 | subtilisin YaB mutant G159S (enzyme; unit assumed) |  |  |  | 19800 | 1600 | 4130 | 35700
13 | subtilisin YaB mutant G159V (enzyme) | 37 | 431 |  |  |  |  | 

Continued, values first:

Row | Specific activity (unit/mg protein), elastin-orcein (unit/mg protein) (elastin-orcein) | Specific activity (unit/mg protein), casein (unit/mg protein) (casein) | Specific activity (unit/mg protein), myofibril (unit/mg protein) (myofibrillar protein) | kcat /Km [1] [M⁻¹ s⁻¹] | kcat /Km [2] [M⁻¹ s⁻¹] | kcat /Km [3] [M⁻¹ s⁻¹] | kcat /Km [4] [M⁻¹ s⁻¹] | Substance
14 | 161 | 717 |  |  |  |  |  | subtilisin YaB mutant 151L (enzyme)
15 |  |  |  | 6480 | 416 |  |  | subtilisin YaB mutant G124V (enzyme; unit assumed)
16 | 355 | 1780 | 750 |  |  |  |  | subtilisin YaB mutant G151A (enzyme)
17 | 148 | 618 |  |  |  |  |  | subtilisin YaB mutant G151V (enzyme)
18 | 2080 | 7780 | 2040 |  |  |  |  | subtilisin YaB mutant G159A (enzyme)
19 |  |  |  | 15700 | 1040 | 3860 | 40500 | subtilisin YaB mutant G159A (enzyme; unit assumed)
20 | 324 | 1630 | 672 |  |  |  |  | subtilisin YaB mutant G159W (enzyme)
21 | 203 | 1010 |  |  |  |  |  | subtilisin YaB mutant G159Y (enzyme)
22 | 541 | 8250 | 5160 |  |  |  |  | wild type subtilisin YaB (enzyme)
23 |  |  |  | 14200 | 1670 | 5250 | 4600 | wild type subtilisin YaB (enzyme; unit assumed)
